Reference: the DeepSol protein solubility set

assay: soluble on expression in E. coli; label from the status in PepcDB or PDB records

Sequence | soluble on expression in E. coli
MAQFIDRRLNGKNKSAVNRQRFLKRHKEQIKESVADAVNRRSITNTETGEDVSIPHKDINEPIFHQGKGGVRERVHPGNDQFITGDKIERPKGGGQGSGSGEGNASPDGEGQDEFVFQISKDEYLDILFEDLELPNLEKNQIAKITEWKTHRAGFQTAGIPSNISVIRSLQQSLARRTAMTAGKKRLLKELEDELTRIKNIEPAQQLEENRLKKEIEELRKKIENVPFIDTFDLRFKNYEKRPVPSSQAVMFCLMDVSGSMDQATKDIAKRFYVLLYLFLTRTYENVDVVFIRHHTQAKEVDEHEFFYSQETGGTIVSSALKLMDEIVKERYPVGQWNIYAAQASDGDNWADDSPRCRDLLVNKLLPNCQYYSYIEITRRSHQTLWHEYEKLTDEFPNFAMKNIRSVEDIFPVFRELFQKETALEHHHHHH | soluble
MGSDKIHHHHHHMSIAPFLEAAGWAEATATPLAGDASSRRYTRLSRGAETAVLMQAPVATKADHASFDAFRKIGAHLRGQNLSAPKEYAADPTNGLILMEDLGDQTLARLLKDDAQTAQIAYNATANLLPHLKVHAPPHLAAPDARAMAQMVALTFDQLPDSAILRDTLLEALAEALTTHAPGAPTLSLRDVHAENLLWLPDRDGPARVGLLDFQDALLLPEGYDLASLLDDPRREVPEVWRADLIAAHSAPTRIAVLSLQRNLRILGIFRRLSTTLGKPAYGAFLPRTRTLIARAASDLPPMLAPVTELLDRTAHWTAP | not soluble
MEDESSAKYPYRESMPRAERVSMKALQDEWRHLFITRAEGENNIHNPKIPEDTNDFDDDMPIECNESEEESITGDREVFSVHHNEEDEDQEDSSQICEESEPQELPKLCRRTDKHFKELPSGLINIIKDLSLDISGLYLPQTLLTGRIDLNDEFVASIEVEDAEKSKEILRRRRERPLALRQFSHALSRAMANLRTYHYDVTTEKIERCPMRNSCKGHLKWEQMRKYRAQCKKNFKDPSLATVEDMMSK | not soluble
MKPVYLAMNYFGPHEHSIIDFSKLESTPIFLISGDTGAGKSTIFDAMTFALFGSTTNDGTDGRAAKEMRSQFAPADQPTSVTFYFEQGNQLYKIARSPEQYLAKKKGSGLTKKNSTAKLAVVDHVGGVEIESIATKPADVGPEITTILNLTADQFKKIILLPQNDFSEFLKSKTTDKEKILKKIFGTQLYSDFTAELKAEYQTASKTGDQFVADLRVALASATWNDEEQAQLQAVPDNQKIPLLRAFVTTRQSAFDQAQQT | not soluble
MPVLHNRISNDALKAKMLAESEPRTTISFYKYFHIADPKATRDALYQLFTALNVFGRVYLAHEGINAQISVPASNVETFRAQLYAFDPALEGLRLNIALDDDGKSFWVLRMKVRDRIVADGIDDPHFDASNVGEYLQAAEVNAMLDDPDALFIDMRNHYEYEVGHFENALEIPADTFREQLPKAVEMMQAHKDKKIVMYCTGGIRCEKASAWMKHNGFNKVWHIEGGIIEYARKAREQGLPVRFIGKNFVFDERMGERISDEIIAHCHQCGAPCDSHTNCKNDGCHLLFIQCPVCAEKYKGCCSEICCEESALPPEEQRRRRAGRENGNKIFNKSRGRLNTTLGIPDPTE | not soluble
MEGGMKRVVLAFGTRPEATKMAPVYLALRGIPGLKPLVLLTGQHREQLRQALSLFGIQEDRNLDVMQERQALPDLAARILPQAARALKEMGADYVLVHGDTLTTFAVAWAAFLEGIPVGHVEAGLRSGNLKEPFPEEANRRLTDVLTDLDFAPTPLAKANLLKEGKREEGILVTGQTGVDAVLLAAKLGRLPEGLPEGPYVTVTMHRRENWPLLSDLAQALKRVAEAFPHLTFVYPVHLNPVVREAVFPVLKGVRNFVLLDPLEYGSMAALMRASLLLVTDSGGLQEEGAALGVPVVVLRNVTERPEGLKAGILKLAGTDPEGVYRVVKGLLENPEELSRMRKAKNPYGDGKAGLMVARGVAWRLGLGPRPEDWLP | soluble
MVASSCLSMNDHHLLYQNISQDLDLGALLSSEVIQSLWGGYGELVRLIFAKRSVIVKHVKLPKPSEHPRGWNTDRSHQRKLHSYQVEVSWYAHFSGVMDSHCRVPQGLKTFQSENEWLIVMEDLAEAGFPKVITDAKLEHLRACLTWLANFHARYIGVCSDKLWHTGTYWHLATRPDELEALQDTELKKAAQLIDQTLSQAKFKTLVHGDAKLANFCFEQDELSVAAVDFQYVGHGCAMKDVALFMSSAVKPERCAEMEVWVLDTYFAKLQQALMVYQPNLDPDEVEREWRPLFAVAWADFQRFVKGWSPDHWKINPYTEALTRRALAYLRK | not soluble
SSEWMKKGPLEWQDYIYKEVRVTASEKNEYKGWVLTTDPVSANIVLVNFLEDGSMSVTGIMGHAVQTVETMNEGDHRVREKLMHLF | soluble
